Source: patent publication US20150099861A1

Target: CMV peptide 495-503 (pp65) presented on target cells (CMV) (UniProt P06725)

Question: For “CD8+ T cells educated against pp65 peptide in the IVE assay (untreated) (cells without a defined receptor)”, which lysis in the chromium release assay is on record?
Answer: Its lysis in the chromium release assay is > 50%.
